Data: patent US20220177587A1, “METHODS AND USES OF VARIANT CD80 FUSION PROTEINS AND RELATED CONSTRUCTS” (Alpine Immune Sciences, Inc., priority 2018, published 2022)
Changes are numbered by the printed parent chain. Names and notes keep the numbering of the source. Like-named read-outs stand apart in the source and are kept apart here.

What was measured:
CD28 (human) [1] = target: CD28 (human) (UniProt P10747)
human PD-L1 (human) [2] = target: human PD-L1 (human) (UniProt Q9NZQ7)
CD28 (human) [3] = target: CD28 (human) (UniProt P10747); remark: listed apart in the source
human PD-L1 (human) [4] = target: human PD-L1 (human) (UniProt Q9NZQ7); assay: flow cytometry, HEK293 cells transfected with full-length human PD-L1, PE anti-human Fc
human CTLA-4 (human) [5] = target: human CTLA-4 (human) (UniProt P16410); assay: flow cytometry, CHO cells stably expressing CTLA4
Sequence of human CTLA-4 (human) (P16410 36-223): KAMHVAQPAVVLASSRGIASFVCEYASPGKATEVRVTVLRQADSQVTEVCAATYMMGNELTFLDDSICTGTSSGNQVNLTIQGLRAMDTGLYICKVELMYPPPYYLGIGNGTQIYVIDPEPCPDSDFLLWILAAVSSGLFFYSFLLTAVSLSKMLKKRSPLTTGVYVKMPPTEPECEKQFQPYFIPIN

human PD-L1 (human) [6] = target: human PD-L1 (human) (UniProt Q9NZQ7); remark: listed apart in the source
CD28 (human) [7] = target: CD28 (human) (UniProt P10747); remark: listed apart in the source
human PD-L1 (human) [8] = target: human PD-L1 (human) (UniProt Q9NZQ7); assay: flow cytometry, MFI on CHO/PD-L1 over MFI on Jurkat (CD28)
human PD-L1 (human) [9] = target: human PD-L1 (human) (UniProt Q9NZQ7); assay: flow cytometry, CHO cells stably expressing PD-L1
CD28 (human) [10] = target: CD28 (human) (UniProt P10747); assay: flow cytometry, Jurkat cells (CD28)
human PD-L1 (human) [11] = target: human PD-L1 (human) (UniProt Q9NZQ7); remark: listed apart in the source
CD28 (human) [12] = target: CD28 (human) (UniProt P10747); remark: listed apart in the source
human PD-L1 (human) [13] = target: human PD-L1 (human) (UniProt Q9NZQ7); assay: flow cytometry, CHO/PD-L1 cells; MFI over CD80 WT IgV-Fc
human PD-L1 (human) [14] = target: human PD-L1 (human) (UniProt Q9NZQ7); remark: listed apart in the source
CD28 (human) [15] = target: CD28 (human) (UniProt P10747); remark: listed apart in the source
CD28 (human) [16] = target: CD28 (human) (UniProt P10747); assay: flow cytometry, Jurkat cells (CD28); MFI over CD80 WT IgV-Fc
human CTLA-4 (human) [17] = target: human CTLA-4 (human) (UniProt P16410); assay: flow cytometry, CHO/CTLA4 cells; MFI over CD80 WT IgV-Fc

Sequence of human PD-L1 (human) (Q9NZQ7 19-290): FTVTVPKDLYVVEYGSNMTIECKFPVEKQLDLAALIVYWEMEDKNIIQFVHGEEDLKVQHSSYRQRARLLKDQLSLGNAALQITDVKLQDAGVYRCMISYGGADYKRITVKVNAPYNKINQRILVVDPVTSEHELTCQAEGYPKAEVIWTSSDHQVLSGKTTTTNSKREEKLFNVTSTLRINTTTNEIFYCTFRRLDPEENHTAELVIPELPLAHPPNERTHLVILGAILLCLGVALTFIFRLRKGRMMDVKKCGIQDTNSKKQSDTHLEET

B1: variant CD80 IgV-Fc E35D/T57I/L70Q/A71D (Fc fusion)
chain: VIHVTKEVKEVATLSCGHNVSVEELAQTRIYWQKDKKMVLTMMSGDMNIWPEYKNRIIFDITNNLSIVIQDLRPSDEGTYECVVLKYEKDAFKREHLAEVTLSVKAD
Fold increase in IL2 reporter signal (Jurkat/IL2 reporter assay) (fold vs WT CD80 IgV-Fc) (CD28 (human) [1]): 0.07

B2: CD80 IgV-Fc E35D/M47V/N48K/V68M/A71G/L85M (Fc fusion)
chain: B1 chain with M47V, N48K, I57T, V68M, Q70L, D71G, L85M
RLU at 5.0 nM: Fold Increase over WT CD80-IgV-Fc (human PD-L1 (human) [2]): 3.6 fold | RLU at 5.0 nM: Fold Increase over WT CD80-IgV-Fc (CD28 (human) [3]): 3.6 fold

B3: variant CD80 IgV-Fc E35G/K54E/A71D/L72P (Fc fusion)
chain: B1 chain with D35G, K54E, I57T, Q70L, L72P
MFI at 22.2 nM (human PD-L1 (human) [4]): 1580 MFI

B4: CD80 IgV-Fc H18Y/E35D/M47V/V68M/L85M (Fc fusion)
chain: B1 chain with H18Y, M47V, I57T, V68M, Q70L, D71A, L85M
Fold change to WT CD80 (human CTLA-4 (human) [5]): 18.5 fold | MFI at 33.3 nM (human CTLA-4 (human) [5]): 19300 MFI | RLU at 5.0 nM: Fold Increase over WT CD80-IgV-Fc (human PD-L1 (human) [6]): 6.4 fold | RLU at 5.0 nM: Fold Increase over WT CD80-IgV-Fc (CD28 (human) [7]): 6.4 fold | Ratio of PDL1:CD28 (human PD-L1 (human) [8]): 2.2 | Fold change to WT CD80 (human PD-L1 (human) [9]): 43.6 fold | MFI at 33.3 nM (human PD-L1 (human) [9]): 3090 MFI | RLU at 5.0 nM: Fold Increase over WT CD80-IgV-Fc (human PD-L1 (human) [2]): 2.5 fold | RLU at 5.0 nM: Fold Increase over WT CD80-IgV-Fc (CD28 (human) [3]): 2.5 fold | Fold change to WT CD80 (CD28 (human) [10]): 33.7 fold | MFI at 33.3 nM (CD28 (human) [10]): 1390 MFI

B5: CD80 H18Y/E35D/M47L/A71G/A91S IgV-Fc (Fc fusion)
chain: B1 chain with H18Y, M47L, I57T, Q70L, D71G, A91S
IL2-luciferase reporter (RLU), fold increase over WT CD80-IgV-Fc at 5.0 nM (human PD-L1 (human) [11]): 4.7 fold | IL2-luciferase reporter (RLU), fold increase over WT CD80-IgV-Fc at 5.0 nM (CD28 (human) [12]): 4.7 fold

B6: CD80 E35D/L97R IgV-Fc (Fc fusion)
chain: B1 chain with I57T, Q70L, D71A, L97R
IL2-luciferase reporter (RLU), fold increase over WT CD80-IgV-Fc at 5.0 nM (human PD-L1 (human) [11]): 2.3 fold | IL2-luciferase reporter (RLU), fold increase over WT CD80-IgV-Fc at 5.0 nM (CD28 (human) [12]): 2.3 fold

B7: CD80 E35D/D46E/M47I IgV-Fc (Fc fusion)
chain: B1 chain with D46E, M47I, I57T, Q70L, D71A
IL2-luciferase reporter (RLU), fold increase over WT CD80-IgV-Fc at 5.0 nM (human PD-L1 (human) [11]): 4.8 fold | IL2-luciferase reporter (RLU), fold increase over WT CD80-IgV-Fc at 5.0 nM (CD28 (human) [12]): 4.8 fold

B8: variant CD80 IgV-Fc V20I/M47V/T57I/V84I (Fc fusion)
chain: B1 chain with V20I, D35E, M47V, Q70L, D71A, V84I
Fold increase in IL2 reporter signal (Jurkat/IL2 reporter assay) (fold vs WT CD80 IgV-Fc) (CD28 (human) [1]): 0.45

B9: variant CD80 IgV-Fc (inert) H18V/A26P/E35D/M47L/V68M/A71G (Fc fusion)
chain: B1 chain with H18V, A26P, M47L, I57T, V68M, Q70L, D71G
MFI at 33.3 nM (human CTLA-4 (human) [5]): 16200 MFI | MFI at 33.3 nM (human PD-L1 (human) [9]): 52400 MFI | MFI at 33.3 nM (CD28 (human) [10]): 2450 MFI | Fold change to WT CD80 (human PD-L1 (human) [13]): 318 fold | IL2-luciferase reporter, fold increase in RLU over WT CD80-IgV-Fc at 5.0 nM (human PD-L1 (human) [14]): 4.7 fold | IL2-luciferase reporter, fold increase in RLU over WT CD80-IgV-Fc at 5.0 nM (CD28 (human) [15]): 4.7 fold | Fold change to WT CD80 (CD28 (human) [16]): 24 fold | Fold change to WT CD80 (human CTLA-4 (human) [17]): 11.7 fold
